# Reference: patent US20250332257A1 (published 2025)
# Residue numbers refer to the chain shown, from its start.
# T1: HPV E6 peptide on HLA-A*11:01 (human)
# T1 peptide: TTLEQQYNK
# B1: TCR013 (TCR, V domains shown)
# Valpha: GQQVMQIPQYQHVQEGEDFTTYCNSSTTLSNIQWYKQRPGGHPVFLIQLVKSGEVKKQKRLTFQFGEAKKNSSLHITATQTTDVGTYFCAGPKITGGGNKLTFGTGTQLKVEL
# Vbeta: DSGVTQTPKHLITATGQRVTLRCSPRSGDLSVYWYQQSLDQGLQFLIQYYNGEERAKGNILERFSAQQFPDLHSELNLSSLELGDSALYFCASSVGGGPNYGYTFGSGTRLTVV
# B2: TCR090 (TCR, V domains shown)
# Valpha: B1 Valpha with T81L, K93V, I94L
# Vbeta: DSGVTQTPRYLITATGQRVTLRCSPRSGDLSVYWYQQSLDQGLQFLIQYYNGEERAKGNILERFSAQQFPDLHSELNLSSLELGDSALYFCASSVGGPNTGELFFGEGSRLTVL
# B3: TCR028 (TCR, V domains shown)
# Valpha: B1 Valpha with K93I, I94L
# Vbeta: B2 Vbeta with R9K, Y10H, S94G, V95L, G96S
# B4: TCR010 (TCR, V domains shown)
# Valpha: AQSVTQLDSHVSVSEGTPVLLRCNYSSSYSPSLFWYVQHPNKGLQLLLKYTSAATLVKGINGFEAEFKKSETSFHLTKPSAHMSDAAEYFCVVSLSGGYNKLIFGAGTRLAVHP
# Vbeta: DSGVTQTPKHLITATGQRVTLRCSPRSGDLSVYWYQQSLDQGLQFLIQYYNGEERAKGNILERFSAQQFPDLHSELNLSSLELGDSALYFCASSVTGSGYTFGSGTRLTVV
# Target: T1, HPV E6 peptide on HLA-A*11:01
# Assay: multimer staining
row,Binder,binding result
1,B1,recognises
2,B2,recognises
3,B3,recognises
4,B4,recognises
